From PMC6941229

Target: SBP-Asi2 (S. cerevisiae) (UniProt P53895)
Chain of UniProt P53895 (P53895 whole entry): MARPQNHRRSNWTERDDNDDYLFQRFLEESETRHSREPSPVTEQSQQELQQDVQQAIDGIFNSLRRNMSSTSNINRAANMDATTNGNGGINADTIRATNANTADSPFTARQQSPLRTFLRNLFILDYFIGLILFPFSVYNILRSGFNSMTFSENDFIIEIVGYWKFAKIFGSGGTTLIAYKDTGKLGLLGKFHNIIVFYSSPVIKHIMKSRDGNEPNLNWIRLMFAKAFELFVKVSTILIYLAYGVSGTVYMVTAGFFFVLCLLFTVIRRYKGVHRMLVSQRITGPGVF

Chain of TM68-MBP (P10614 1-68): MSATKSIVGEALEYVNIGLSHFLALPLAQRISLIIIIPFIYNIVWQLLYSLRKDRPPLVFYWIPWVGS

ubiquitination of TM68-MBP in proteoliposomes with only the Asi1/Asi3 subcomplex (no Asi2), against proteoliposomes with the entire Asi complex; Ubi Mix, 60 min: 28%
Substance: TM68-MBP (from UniProt P10614 1-68) (domain or fragment)
